Patent US20130058939A1

Biological target: low-density lipoprotein (LDL) receptor-related protein (LRP) on bovine brain capillary endothelial cells of the in vitro BBB model (bovine)
Experiment: cell-based or functional assay
Conditions: for alteplase (% of passage versus filter), spectrozyme assay, in vitro BBB model: scale: % of passage versus filter for alteplase alone

Sequence of DSPA α2 (alpha 2) (P15638 37-477 limits assumed): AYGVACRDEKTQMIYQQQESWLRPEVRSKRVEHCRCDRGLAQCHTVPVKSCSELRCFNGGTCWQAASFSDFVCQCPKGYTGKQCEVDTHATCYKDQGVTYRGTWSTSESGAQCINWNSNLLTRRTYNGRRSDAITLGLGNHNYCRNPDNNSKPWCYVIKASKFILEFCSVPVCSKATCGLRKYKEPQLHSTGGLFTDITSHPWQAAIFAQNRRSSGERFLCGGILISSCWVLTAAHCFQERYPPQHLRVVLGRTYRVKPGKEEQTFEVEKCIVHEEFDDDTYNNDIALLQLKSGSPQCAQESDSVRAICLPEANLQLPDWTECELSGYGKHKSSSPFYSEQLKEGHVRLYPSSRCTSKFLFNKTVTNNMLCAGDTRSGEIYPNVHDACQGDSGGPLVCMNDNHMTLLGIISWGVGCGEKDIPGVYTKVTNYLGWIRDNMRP
Sequence of DSPAα1 (Desmoteplase) (P98119 37-477 limits assumed): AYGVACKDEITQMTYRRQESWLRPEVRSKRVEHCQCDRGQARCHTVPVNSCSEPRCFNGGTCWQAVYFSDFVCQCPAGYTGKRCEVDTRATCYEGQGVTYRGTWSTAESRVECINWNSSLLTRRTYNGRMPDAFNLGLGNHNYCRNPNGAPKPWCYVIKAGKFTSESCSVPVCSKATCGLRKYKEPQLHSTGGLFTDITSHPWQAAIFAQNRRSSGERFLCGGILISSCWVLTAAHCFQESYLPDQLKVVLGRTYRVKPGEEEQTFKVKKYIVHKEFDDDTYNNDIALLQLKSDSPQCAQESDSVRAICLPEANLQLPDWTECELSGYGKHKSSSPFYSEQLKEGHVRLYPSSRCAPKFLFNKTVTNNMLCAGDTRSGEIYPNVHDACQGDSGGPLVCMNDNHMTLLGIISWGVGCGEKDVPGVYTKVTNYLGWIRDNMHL
Sequence of clogged Desmoteplase (cDSPA), DSPA alpha 1 inactivated with D-phenyl-prolyl-arginine chloromethyl ketone (P98119 37-477 limits assumed): as above

Row | % of abluminal alteplase (zymography assay; alteplase alone = 100), in vitro BBB model (% of abluminal alteplase alone) | alteplase (% of passage versus filter), spectrozyme assay, in vitro BBB model | Substance
1 | 25.1 | 61.9 | DSPA α2 (alpha 2) (from UniProt P15638 37-477) (enzyme)
2 | 51.6 |  | Reteplase (Rapilysin) (enzyme)
3 | 46.6 | 67 | DSPAα1 (Desmoteplase) (from UniProt P98119 37-477) (enzyme)
4 | 73.3 | 76.3 | clogged Desmoteplase (cDSPA), DSPA alpha 1 inactivated with D-phenyl-prolyl-arginine chloromethyl ketone (from UniProt P98119 37-477) (enzyme)
